The numbers were not newly measured in publication PMC9826382, which cites them from elsewhere.

Usually Kd stands for the concentration at which binding is half-saturated.

The data set deals with HOP TPR2A (Homo sapiens) (UniProt P31948). Description: SPR.
UniProt P31948, sequence (P31948 223-352): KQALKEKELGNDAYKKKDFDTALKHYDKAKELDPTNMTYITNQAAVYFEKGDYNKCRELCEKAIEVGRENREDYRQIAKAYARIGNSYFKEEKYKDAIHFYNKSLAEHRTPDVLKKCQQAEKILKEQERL

As to HSP90 C-terminal peptide, the Kd is 11 µM.
